From the nanobody polyreactivity screen of Harvey et al. (2022) come the findings set out here.

The data set is described as follows: yeast display, Sf9 membrane polyspecificity reagent, FACS + sequencing; frameworks hold sequencing errors. In short, it runs like this: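 Galactose induction of a Saccharomyces cerevisiae BJ5465 synthetic nanobody display library ran 36–48 hours. The cells were then stained for 1 hour at 4 °C with 10% biotinylated, detergent-solubilized Sf9 membrane reagent, pulled down on streptavidin microbeads and FACS-sorted into low and high (top ~1%) gates on expression and reagent-binding fluorescence. Labels for polyreactivity follow the gate of origin.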
Take “QVQLVESGGGLVQAGGSLRLSCAASGSIFIYYAMGWYRQAPGKQRELVAGINFNGGSTYYADSVKGRFTISRDNAMYTVYVQMNSLKPEDTAVYYCAADELWWTYWDFVTNWYQRDYWGQGTQVTVSS”: the “polyreactivity (PSR sort gate)” value was “low polyreactivity”. Consider “QVQLQESGGGLVQEGGSLRLSCAASGNISPPADMGWYRQAPGKERELVASIGTGGTTNYADSVKGRFTISRDNAKNTVYLQMNSLKPDDTAVYYCAAVRYEYNPYDYWGEGTQVTVSS”, for which the “polyreactivity (PSR sort gate)” value is listed as “low polyreactivity”. In the case of “QVQLVDSGGGLVQAGGSLRLSCAASGSIFEGYVMGWYRQAPGKERELVAAITTGGGSTYYADSVKGRFTISRDNAKNTVDLPMNSLKPEDTAVYYCAKDYWFGYEYWGQGTQVTVSS”, the “polyreactivity (PSR sort gate)” value was “low polyreactivity”. With “QVQLVESGGGLVQAGCSLRLSCAASGRTLFKYAMGWYRQAPGKERELVAVISWGGGITYYADSVKGRFTISRDNAKNTVYLKMNSLKPEDTAVYYCATDSHARFYRYYWGQGTQVTVSS”, the “polyreactivity (PSR sort gate)” value is recorded as “low polyreactivity”. “QVQLVESGGGLVQAGGSLRLSCAASGSTFSHNTMGWYRQAPGKERELVAAISSRGSSTYYADSVKGRFTISRDNAKNTVYLQMNSLKPEDTAVYYCAARYLRGTWAGLGYDYWGQGTQVTVSS”: the “polyreactivity (PSR sort gate)” value is recorded as “low polyreactivity”. On to “QVQLVESGGGLVQAGGSLRLSCAASGNTFVSNARGWYRQAPGKERELVAAIDSGGSTNYADSVKGRFTISRDNAKNTVYLQMNSLKPEDTAVYYCNRTSVYYYYWGQGTQVTVSS”, for which the “polyreactivity (PSR sort gate)” value is “low polyreactivity”. In the case of “QVQLVESGGCLVQAGGSLRLSCAASGNIIVGNDMGWYRQAPGKERELGAAISSGDTTSYADSVKGRFTISRDNAKNTVFLQMISLKPEDTAVYYCAAGFTYPYDYWGQGTQVTVSS”, the “polyreactivity (PSR sort gate)” value is on record as “low polyreactivity”. With “QVQLVESGGGLVQAGGSLRLSCAASGSTFSSNPMGWYRQAPGKERELVAAISVNGGSTNYADSVKGRFTISRDNAKNTVYLQMNSLKPVDTAVYYCAAEPAKVAFYRGDYWGQGTQVTVSS” the entry was “low polyreactivity”; with “QVQLVESGGGLDQAGGSLRLSCAASGFTFYWYAMGWYRQAPGKEREFVAAIDQSGGSTYYADSVKGRFTISRDNAKNNVYLQMNSLKPEDTAVYYCAKLYNIGYDYWGLGTQVTVSS”, “low polyreactivity”; with “QVQLVESGGGLVQAGGSLRLSCAASGSTFRYYDMGWYRQAPGKERELVADISSGGSTYYADSVKGRFTISRDNAKNTVYLQMNSLKPEDTAVYYCAAAYLSWLFRYDYWGQGTQVTVSS”, “high polyreactivity”. As to “QVQLVESGGGLLQAGGSLRLSCAASGRTFNYYAMGWYRQAPGKERELVAAISRSGGSTYYADSVKGRFTISRDNAKNTVFLQMNSLKPEDTAVYYCKSDRGSIYGWGQGTQVTVSS”, the “polyreactivity (PSR sort gate)” value is reported as “high polyreactivity”. For “QDQLVESGGGLVQAGGSLRLIFAASGSIFNGYAMGWSRQAPGKERELVADIRSGGSTYYADSVMGRFTISRDNAKNTVYLQMNSLKPEDTAVYYGAADTITDGYDYWGQGSQVTVSS” the value was “low polyreactivity”; for “QIQLVESVGGLVQAGGSLRLSCDASGSTLKYTAMGWYRQAPRKESELVAAISTSGGNTYYADSVKGPFTISRDNAKNTVYLQMNSLKPEDTAVYYCAKVLGYYYYDYDSWGQGTQVTVSS”, “low polyreactivity”.

As for “QVQHEESGGGLDQPGGSLRLTCAASGRIFNGYKMGWYRKAPGKETEFVDTISRSGGSTYYADSVKGRFTISRDNAKNSVYLQMNSLKPEDTAVYYCAKSYPDKWEYDYWGQGTQVTVSS”, the “polyreactivity (PSR sort gate)” value was “low polyreactivity”. With “QVQLVESGGGLVQAGGTLRLSCSASGRTFYSYAMGWYRQAPGKERELVAAISYTGASTFYADSVKGRFTISRDNAKNTVYLQMNSLIPEDTAVYYCAAESQPSYGETDEYWGQGTQVTVSS” the entry was “high polyreactivity”. With “QVQLVESGGGLVQAGGSLRLSCAASGSIFRSYAMGWYRQAPGKERELVAAIRSDGRTNYADSVKGRFTISRDNAKNTVYFQMNSLKPEDTAVYYCDANAYYSYWRSMDYWGQGTQVTVSS” the entry was “low polyreactivity”. For “QVQLVESGGGLVQAGGSLRLSCAASGFIYGWYAMGWYRQAPGKERELVAAINWSGTSTYYADSVKGRFTISRDNAKNTVYLQMNSLKPEDTAVYYCAAYFQKLPTTGYDYWGQGTQVTVSS” the value was “low polyreactivity”.

As for “QVQIVDSGGGLVQAGGSLRISCAASGRIFAGYGKGWYRQAPGKERELVAAISSGGSTYYADSVKGRFTISRDNAKNTVYLQMNSLKPEDTAVYYCATDGQSVPDDYYQNVDYDYWGQGTQVTVSS”, the “polyreactivity (PSR sort gate)” value is “low polyreactivity”. With “QVQLVESGGGLVQAGGSLRISCAASGITFDQNAMGWYRQAPGKEREFVGAITRGSSTNYADSVKGRFTISRDNAKNTVYLQMNSLKPEETAVYYCNADGYARFRTYYCRDTREYDYWGQGTQVTVSS” the entry was “low polyreactivity”; with “QVQLVESGGGLVQAGGSLRLSCAASGYIFGVYVMGSYRQAPGKERELVAAITRGGGNTYYADSVKGRFTISRDNAKNSVYLQMNSLKPEDTAVYYCAARSLKSLSRYYYWGQGTQVTVSS”, “high polyreactivity”; with “QVQLVESGGGLVHEGRSLRLSCAASGSKYSYDAMGWYRQAPGTERELVPTISWRGRTYYADSVKGRFTISRDNAKNTVYLKMISLKPEDTAVYYCNTKSLYGRSRGYPYDYWGQGTQVTVSS”, “high polyreactivity”. With “QVQLVESGGGLVQAGGSLRISCAASAITFEPYAMGWYRQAPGTEREFVAAISRSGGSTYYADSVKGRFTISRDNAKNTVYLQMNSLKPEDTAVYYCAADSWIGPDYGHDYRGQGTQVTVSS”, the “polyreactivity (PSR sort gate)” value is recorded as “high polyreactivity”. For “QVQLVESGGGLVQAGGILRLSCAASGSILDLNAMGWYRQAPGKERELFAAISYSGDSTYYADSVKGRFTISRDNAKNTVYLQMNSLKPEDTAVYEGAAEVYGAVYDYWGQGTQVTVAS” the value was “low polyreactivity”; for “QVQLVESGGGLVQAGGSLRLSCAASGYNFIVYTMGWYRQAPGKERELVAAISSGGITDYADSVKGRFTISRDNAKNTVYLQMNSLKPEDTAVYYWGQGTQVTVSS”, “low polyreactivity”. With “QVQLVESGGCLVQAGGSIRLSCAAYGSNFDNAMGWSRPATGKERELGAAITSGGITNYADSVKGRFTISRDNAKNTVYLQMNSLKPEDTAVYYCNTLSPTQTKFDYWGQGTQVTVTS” the entry was “low polyreactivity”; with “QVQLVESGGGLVQAGGSLRLSCAASGSIFTFYAMGLYRQAPGKERELVAAISYRGGSTYYADSVKGRFTISRDNAKNTVYLQINSLKPEDTAVYYCAAARFPVFIQGYRMEYWGQGTQVTVSS”, “low polyreactivity”. For “QVQLVESRGGLVQAGGSLRLSCAASGFTFYKYAMGCYRQAPGKERELVAAITGSGGSTYYADSVKGRFTISRDNAKNTVYLQMNSLKPEDTAVYYCATRYPTYYGYHKFDYWGQGTQVTVSS” the value was “high polyreactivity”; for “QVQLVESGGGLVQAGGSLRLSCSASGIIFIYYGMGWYRKAPGKERELVAAISRSGGRTYYADSVKGRFTISRDNANNTVYFHMNSLKPEDTAVYYCANTYTQTGFDYWGQGTQVTVSS”, “high polyreactivity”; for “QVQLVESGGGIVQAGGSLRLSCAASGSIFDVYAMGWYRQAPGKERELVAAITWRGGNTYYADSVKGRFTISRDNAKNTVYLQMNSLKPEDTAVYYCNALHRIRYTPSSRYDYWGQGTQVTVSS”, “low polyreactivity”. In the case of “QVQLVESGGGLVQAGGSLRLSCASSARIFFWYTMGWYSQAPGKERELVAAITSSGNTNYADSVKGRFTISRDNAKNTVYLQMNSLKPEDTAVYYCATGSYSYYSLFDYWGQGTQVTVSS”, the “polyreactivity (PSR sort gate)” value is listed as “low polyreactivity”. With “QVQLVESGGGLVQAGGSLRLSCAASGRTFETNAMGWYRQAPGKERELVAAISRSGGSTRYADSVKGRFTISRDNAKNTVYLQMNRLKPEDTAVYYCAVRVGLGGGYWGQGTQVTVSS” the entry was “high polyreactivity”; with “QFQLVESGGGLDQAGGSLRLICAASGITFDTNLMGWYRQAPGKERELVAAISARGGSTYYADSVKGRFTISRDNAKNTVYLQMNSLKPEDTAVYYCNAVIRPWQSYYYWGQGTQVTVSS”, “high polyreactivity”. With “QVQHVESGGVLVQAGGSLRLSCAASGSTFGGYAMGWYRQAPGKERELVASISRRGGSTYYADSVKGRFTLSRDNAKNTFYFHMNSLKPEDTAVYYCNAAFLRQVWDGYNYWGQGSQVTVSS” the entry was “high polyreactivity”. For “QVQHVESGVGLVQAGGSLRLSCAASGSTFVPYAMGWYRQAPGKDRELVAAISSAGSTNYADSVKGRFTISRDNAKNTVYLQMNSLKPEDTAVYYCARDIQDTYEFDYWGQGTQVTVSS” the value was “low polyreactivity”; for “QVQLVESGGGLDQAGGSLRLSCAASGRIFVFYTMAWYRQAPGKERDLVAAITKSGGSTYYADSVKGRFTISRDNAKNTVYFQMNSLKPEDTAVYYCATRDSPRTKNGYYYWGQGTQVTVSS”, “high polyreactivity”; for “QFQLVESGGGLVQAGGSLRLSCAASGSIFHPYTMGWYRPAPGKERELVAAISWSGGNTNYADSVKGRFTISRDNAKNTVYLQMNSLKPEDTAVYYCNKATNLSGGYDSWGQGTQVTVSS”, “low polyreactivity”. For the sequence “QVQLVESGGGLFKAGGSLRLSCAASGSTLVTYAKGWYRQAPGKERELVAAISWRGGSTYYADSVKGRYTISRDNAKNTVYLQMNSLKPEDTEVYYCNKMRAYKESETYYFWGQGTQVTVSS”, the “polyreactivity (PSR sort gate)” value was “low polyreactivity”. With “QVQLVESGGGLVQAGGSLRLSCAASGYIFILYAKGWYRQATGKERQLVATISSNAVSTYYADSVKGRFTISRDNAKITVYLQMNSLKPEDTAVYYCNVEYTPNTVSGYDYWGQGTQVTVSS” the entry was “low polyreactivity”; with “QVQLVESGGGLVQAGGSLRLSCAASGITFDTYAMGCYIQAPGKERELVAAISKSGGSTYYADSVKGRFTISRDNAKNTVYLQMNSLKPEDTAVYYCNARYRNSGRYWDWYYYWGQGTQVTVSS”, “high polyreactivity”. With “QVQLVESGGGLVQAGGSLRLSCAATGSIFSLYAMGWYRQSPGKERELVADITYSGGNTYYADSVKGRFTISRDNAKNTVYLHMNSLKPEDTAVYYCNAYYFDYWYWYDYWGQGTQVTVSS”, the “polyreactivity (PSR sort gate)” value is recorded as “high polyreactivity”. For “QVQLVDSGAGLVQAGGSLRLSCAASGSIYYRYALGWYRQAPRQVRELVAAITQSTDSTYYADSVKGRFTISRDNAKNTVYLQMNSLKPEDTAVYYCAAYLVYYRPYAYGYWGQGTQVTVSS”, the “polyreactivity (PSR sort gate)” value is “low polyreactivity”.
